In patent US10336832:

Experiments:
[1] = biological target: pKal catalytic domain Mutant 4 (human) (UniProt P03952); test: Ki,app, equilibrium, fluorogenic substrate
[2] = biological target: human plasma kallikrein (active form, purified from human plasma and activated with factor XIIa) (human) (UniProt P03952); test: ELISA, target/background
Sequence of human plasma kallikrein (active form, purified from human plasma and activated with factor XIIa) (human) (P03952 20-390 limits assumed, chain 1 of 2): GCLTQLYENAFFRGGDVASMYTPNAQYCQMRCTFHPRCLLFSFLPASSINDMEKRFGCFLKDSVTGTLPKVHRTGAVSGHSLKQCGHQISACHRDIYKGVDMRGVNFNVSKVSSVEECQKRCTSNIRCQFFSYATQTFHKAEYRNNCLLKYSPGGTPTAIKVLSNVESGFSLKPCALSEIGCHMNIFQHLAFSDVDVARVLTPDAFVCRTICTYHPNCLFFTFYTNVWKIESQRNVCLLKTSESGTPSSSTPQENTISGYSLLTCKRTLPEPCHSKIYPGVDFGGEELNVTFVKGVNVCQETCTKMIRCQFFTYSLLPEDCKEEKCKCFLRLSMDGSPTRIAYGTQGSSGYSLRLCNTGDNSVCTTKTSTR
Sequence of human plasma kallikrein (active form, purified from human plasma and activated with factor XIIa) (human) (P03952 391-638 limits assumed, chain 2 of 2): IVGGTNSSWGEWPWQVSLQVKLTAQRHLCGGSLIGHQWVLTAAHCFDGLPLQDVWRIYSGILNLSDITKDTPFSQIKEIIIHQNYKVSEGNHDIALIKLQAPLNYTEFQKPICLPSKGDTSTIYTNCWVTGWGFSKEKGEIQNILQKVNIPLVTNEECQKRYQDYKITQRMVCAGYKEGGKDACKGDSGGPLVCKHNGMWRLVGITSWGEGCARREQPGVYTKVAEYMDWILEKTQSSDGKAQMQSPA

Sequence of pKal catalytic domain Mutant 4 (human) (P03952 other isoform, or with tags, fused parts or gaps mutant): as the sequence (P03952 391-638 limits assumed, chain 2 of 2) above, with S7A, S8A counted along it

Row | Ki [1] [nM] | ELISA (T/B) [2] | Binder
1 | 0.25 |  | X101-A01 (antibody, V domains shown) VH: EVQLLESGGGLVQPGGSLRLSCAASGFTFSHYLMTWVRQAPGKGLEWVSYISPSGGHTIYADSVKGRFTISRDNSKNTLYLQMNSLRAEDTAVYYCARVARGIAARSRTSYFDYWGQGTLVTVSS VL: EIVLTQSPGTLSLSPGERATLSCRTSQFVNSNYLAWYQQKPGQAPRLLIYGASSRATGIPDRFSGSGSGTDFTLTISRLEPEDFAVYYCQQSSRTPWTFGQGTKVEIK
2 |  | 2 | M29-E02 (Fab, V domains shown) VH: EVQLLESGGGLVQPGGSLRLSCAASGFTFSRYPMMWVRQAPGKGLEWVSVIYPSGGDTFYADSVKGRFTISRDNSKNTLYLQMNSLRAEDTAVYYCASGDDYLWEAAVYWGQGTLVTVSS VL: QSVLTQPPSVSEAPRQRVTISCSGSSSNIGNNAVSWYQQLPGKAPKLLIYYDDLLPSGVSDRFSGSKSGTSASLAISGLRSEDEADYYCAAWDDSLNGFVFGTGTKVTVL
3 |  | 1.5 | M28-F01 (Fab, V domains shown) VH: EVQLLESGGGLVQPGGSLRLSCAASGFTFSVYLMHWVRQAPGKGLEWVSGISPSGGYTQYADSVKGRFTISRDNSKNTLYLQMNSLRAEDTAVYYCARPGGLDAFDIWGQGTMVTVSS VL: DIQMTQSPSSLSASVGDRVTITCRASQSINTYLNWYQQKPGKAPKVLIHAASTLESGVPSRFSGSGSGTDFTLTISSLQPEDFATYYCQQSYSTPPTFGQGTKVEIK
